In article PMC3134462 (2011):
Where no end group is shown, it is not given here. [ ]: non-standard residue; d: D form. pY = N[C@@H](Cc1ccc(OP(=O)(O)O)cc1)C(=O)O

What was measured:
[1] = target: T1, DLC-1 peptide (nonphosphorylated) (Homo sapiens); test: SPR
T1 chain: CSRLSIYDNVPG

DLC-1 peptide (pY442) = target: T2, DLC-1 peptide (pY442) (Homo sapiens); test: SPR
T2 chain: CSRLSI[pY]DNVPG

B1: Tensin2 SH2 domain 1135-1248 (protein)
chain: DTSKFWYKPHLSRDQAIALLKDKDPGAFLIRDSHSFQGAYGLALKVATPPPSAQPWKGDPVEQLVRHFLIETGPKGVKIKGCPSEPYFGSLSALVSQHSISPISLPCCLRIPSK
B1 was tested. Which Kd [1] did it give?
Its Kd is about 248 nM.

What about the Kd (DLC-1 peptide (pY442)) of the same binder?
The Kd was about 31 nM.
